These results are taken from patent US9766239.

Where no end group is shown, it is not given here. scaffold 1571 = not defined here

The target in experiment [1] is Norovirus surrogate virus-like particle, type GII.4 Minerva strain (human Norovirus GII.4 Minerva strain). In words: direct ELISA on purified GII.4 nVLP.
For experiment [2] the target is unchanged. In words: SPR, unpurified peptide against nVLP GII.4.
For experiment [3], the target named is GII.4 Sydney# Norovirus VLP (Norovirus GII.4 Sydney strain). In words: capture of VLP from a dilute solution by the synbody.
Experiment [4] has as its target Norovirus surrogate virus-like particle, type GII.4 Minerva strain (human Norovirus GII.4 Minerva strain). Described as above.

Regarding VWARKNNKRKKDFNAGWGSC(scaffold 1571) (designed binder, reading uncertain; also: two peptides coupled by Cys to scaffold 1571 (dimer)) [nVLP53-53-1571], the Kd in experiment [1] is 1 nM.
SWARSNNKRSKAFNLGWGSC(scaffold 1571) (designed binder, reading uncertain; also: two peptides coupled by Cys to scaffold 1571 (dimer)) [nVLP78-78-1571]: the dissociation constant (Kd) in experiment [1] amounted to 5 nM.
SWARSNNKRSKAFNLGWGSC [Mut Peptide-78]: in experiment [2], the % Stability came to 46%, the Avg Binding (Spot 1/2) turned out to be 169 and the koff was 0.00431 s⁻¹.
In experiment [2], RWVRVKLRSHTKLNRYIGSC [Mut Peptide-94] showed a % Stability of 63%, an Avg Binding (Spot 1/2) of 358 and a koff of 0.00294 s⁻¹.
In the case of RWVRVKLRSHTELNRYIGSC(scaffold 1571) (designed binder, reading uncertain; also: two peptides coupled by Cys to scaffold 1571 (dimer)) [nVLP93-93-1571], the Enrichment Factor from 1 ng/µL solution is 3 in experiment [3] and 10 in experiment [4]. Moreover, the dissociation constant Kd in experiment [1] is 4 nM.
For DWARKNNKRKMNFNLGWGSC [Mut Peptide-60], in experiment [2], the % Stability came out at 44%, the Avg Binding (Spot 1/2) turned out to be 134 and the koff was 0.00487 s⁻¹.
Consider VWARKNNKRKKDFNAGWGSC [Mut Peptide-53], for which, in experiment [2], the % Stability turned out to be 51%, the Avg Binding (Spot 1/2) was found to be 189 and the dissociation rate constant (koff) stood at 0.00408 s⁻¹.
In experiment [2], RWHRVKLRSHTELNRYIGSC [Mut Peptide-92] showed a % Stability of 57%, an Avg Binding (Spot 1/2) of 230 and a koff of 0.00355 s⁻¹.
RWHRVKLRSHTELNRYIGSC(scaffold 1571) (designed binder, reading uncertain; also: two peptides coupled by Cys to scaffold 1571 (dimer)) [nVLP92-92-1571] registered an Enrichment Factor from 1 ng/µL solution in experiment [4] of 3. The Kd in experiment [1] was found to be 3 nM.
As to RWVRVKLRSHTKLNRYIGSC(scaffold 1571) (designed binder, reading uncertain; also: two peptides coupled by Cys to scaffold 1571 (dimer)) [nVLP94-94-1571], the Enrichment Factor from 1 ng/µL solution was determined as 3 in experiment [3] and 7 in experiment [4]. Further, in experiment [1], the equilibrium dissociation constant (Kd) came to 1 nM.
Turning to AWARSNNSRSKAFNLGWGSC [Mut Peptide-81], in experiment [2], the % Stability stood at 45%, the Avg Binding (Spot 1/2) amounted to 128 and the koff is 0.00455 s⁻¹.
In the case of AWARSNNSRSKAFNLGWGSC(scaffold 1571) (designed binder, reading uncertain; also: two peptides coupled by Cys to scaffold 1571 (dimer)) [nVLP81-81-1571], the Kd in experiment [1] was determined as 3 nM.
In experiment [2], RWVRVKLRSHTELNRYIGSC [Mut Peptide-93] returned a % Stability of 60%, an Avg Binding (Spot 1/2) of 274 and a koff of 0.00332 s⁻¹.
For VWARKNNSRSKDFNAGWGSC(scaffold 1571) (designed binder, reading uncertain; also: two peptides coupled by Cys to scaffold 1571 (dimer)) [nVLP55-55-1571], the dissociation constant (Kd) in experiment [1] came out at 9 nM.
Take DWARKNNKRKMNFNLGWGSC(scaffold 1571) (designed binder, reading uncertain; also: two peptides coupled by Cys to scaffold 1571 (dimer)) [nVLP60-60-1571]: in experiment [1], the Kd is 2 nM. This Kd lies about 4.5-fold lower than the previous one.
